Values joined by “and” are separate entries in the source; they are usually repeats but may differ in a detail not shown here. Equal values may be shown once.
Settings: Spinacia oleracea, pH 7, Thermal, whole UniProt chain shown
[1] = DSC, potassium phosphate 10 mM, reversible: No
[2] = DSC, potassium phosphate 10 mM, reversible: Yes, 90%
[3] = DSC, potassium phosphate 10 mM, reversible: Yes
[4] = NMR, phosphate 10 mM, reversible: No

B1: Plastocyanin, chloroplastic wild type, P00289 (protein)
chain: MATVASSAAVAVPSFTGLKASGSIKPTTAKIIPTTTAVPRLSVKASLKNVGAAVVATAAAGLLAGNAMAVEVLLGGGDGSLAFLPGDFSVASGEEIVFKNNAGFPHNVVFDEDEIPSGVDAAKISMSEEDLLNAPGETYKVTLTEKGTYKFYCSPHQGAGMVGKVTVN
**Q.** For B1, which Tm [1] is on record?
**A.** The Tm was 67.8 °C and 67.2 °C.

**Q.** What about the “unfolding enthalpy (van 't Hoff)” value [1] of the same protein?
**A.** Its value is 354 kJ/mol and 352 kJ/mol.

**Q.** What about the Tm [2] of the same protein?
**A.** Its Tm is 71 °C.

**Q.** And the “unfolding enthalpy (van 't Hoff)” value [2]?
**A.** Its value is 358 kJ/mol.

**Q.** And the Tm [3]?
**A.** Its Tm is 71.2 °C.

**Q.** What about the “unfolding enthalpy (calorimetric)” value [3] of the same protein?
**A.** Its value is 494 kJ/mol.

**Q.** And the “unfolding enthalpy (van 't Hoff)” value [3]?
**A.** Its value is 343 kJ/mol.

**Q.** And the Tm [4]?
**A.** The Tm was 67.9 °C.

**Q.** And the “unfolding enthalpy (van 't Hoff)” value [4]?
**A.** Its value is 483 kJ/mol.

From FireProtDB (doi:10.1021/bi034371e)
